Entries after “also recorded” stand apart in the source; their conditions may differ.
Legend:
[1] = Functional analysis of codon 708 saturated mutagenesis variants for resistance to PCR inhibitors; type: biochemical; settings: for functionality of the 708 substitution: KlenTaq or full-length Taq background
Procedure: Single amino acid changes of the wild type Taq Glu708 were implicated in both selected qualities of the mutants, blood and soil-resistance.
Saturated mutagenesis was performed at codon 708 of Taq to test functionally the full spectrum of all possible substitutions at this critical position.

630 bp CCR5 gene target = test: Real-time PCR of human CCR5 target mixed with crude soil extract and SYBR titration; type: biochemical; settings: 4 ng human DNA mixed with crude soil extract, SYBR titrated
Procedure: A 630 bp CCR5 gene target was amplified from 4 ng of human DNA mixed with crude soil extract and various amounts of SYBR. Klentaq-10 mutant enzyme was compared to it's wild type precursor, and FLAC-22 (SEQ ID NO: 2) was compared to the wild type Fast Start Taq polymerase (Roche). SYBR Green fluorescent dye was titrated to optimize the fluorescent signal for real time detection. PCR was performed in real-time cycler Opticon2, and the amplified products were analyzed both by gel electrophoresis (bottom panels) and SYBR Green dye melting curve profile (top panels).

[2] = tested on: 0.6 kbp Bacillus cereus target DNA; test: Real-time PCR of 0.6 kbp Bacillus cereus target challenged with two-fold SYBR green dilutions; settings: for SYBR concentration above which amplification failed / SYBR concentration in the presence of which the 0.6 kbp Bacillus cereus target DNA was amplified: 2.5 units enzyme per 50 ul, 20 pg genomic DNA, 40 cycles, no blood
[3] = tested on: 0.32 kbp 16S microbial target; test: Real-time PCR of 16S microbial target double challenged with 5% blood and SYBR green dilutions; settings: for amplification under double challenge: SYBR green dilutions from 32×, 40 cycles
[4] = tested on: anthrax genome target (1.3 kb Bacillus anthracis); type: biochemical; settings: 5% human blood, 32× SYBR Green
[5] = tested on: endogenous 600 bp target of Bacillus Cereus; test: Real-time PCR of endogenous Bacillus Cereus target from crude soil extract; type: biochemical; settings: soil extract 16%, 8%, 4%, 2%
[6] = tested on: 244 bp influenza virus RNA target; type: biochemical; settings: purified RNA and mimic crude samples with 8% plasma, serum, whole blood; PEC-Plus enhancer
[7] = tested on: 244 bp influenza virus target; type: biochemical; settings: 5% human serum, 200 μM TaqMan probe, PEC-Plus enhancer
[8] = tested on: 0.25 kbp Lambda specific target; test: Real-time PCR of Lambda target challenged with two-fold SYBR green dilutions; settings: for SYBR concentration in the presence of which the 0.25 kbp lambda target was amplified: purified DNA template, 2.5 units per 50 ul, 35 cycles
[9] = tested on: 0.6 kbp Bacillus cereus target DNA; test: Real-time PCR of Bacillus cereus target double challenged with 5% and 10% blood and SYBR green dilutions

Molecule: FLAC-10: full-length Taq mutant with K substitution at 708, corresponding to Klentaq10
- functionality of the 708 substitution [1]: efficient

Molecule: FLAC-3: full-length Taq mutant with Q substitution at 708
- functionality of the 708 substitution [1]: only functional in Taq

Molecule: Fast Start Taq: commercial wild type Taq enzyme (Roche)
- melting curve profile in crude soil samples (630 bp CCR5 gene target): showed a melting curve at very low SYBR concentration
- SYBR concentration above which amplification failed [2]: higher than 0.2 ×
- post PCR melting curve analysis ([3]; 5% blood): did do not show the correct melting temperature of the product at all
- amplification under double challenge ([3]; 5% blood): able to amplify only the positive control

Molecule: FLAC-12: full-length Taq mutant with L substitution at 708, corresponding to Klentaq 12
- functionality of the 708 substitution [1]: efficient

Molecule: FLAC-4: full-length Taq mutant with I substitution at 708
- functionality of the 708 substitution [1]: only functional in Taq

B1: KlenTaq-10: SEQ ID NO: 1; N-terminal deletion at 278 of full-length wild type Taq with substitutions E626K, I707L, E708K (protein)
chain: MGLLHEFGLLESPKALEEAPWPPPEGAFVGFVLSRKEPMWADLLALAAARGGRVHRAPEPYKALRDLKEARGLLAKDLSVLALREGLGLPPGDDPMLLAYLLDPSNTTPEGVARRYGGEWTEEAGERAALSERLFANLWGRLEGEERLLWLYREVERPLSAVLAHMEATGVRLDVAYLRALSLEVAEEIARLEAEVFRLAGHPFNLNSRDQLERVLFDELGLPAIGKTEKTGKRSTSAAVLEALREAHPIVEKILQYRELTKLKSTYIDPLPDLIHPRTGRLHTRFNQTATATGRLSSSDPNLQNIPVRTPLGQRIRRAFIAEEGWLLVALDYSQIELRVLAHLSGDKNLIRVFQEGRDIHTETASWMFGVPREAVDPLMRRAAKTINFGVLYGMSAHRLSQELAIPYEEAQAFIERYFQSFPKVRAWLKKTLEEGRRRGYVETLFGRRRYVPDLEARVKSVREAAERMAFNMPVQGTAADLMKLAMVKLFPRLEEMGARMLLQVHDELVLEAPKERAEAVARLAKEVMEGVYPLAVPLEVEVGIGEDWLSAKE
modifications: Klentaq-10
notes: N-terminal deletion at 278 of full-length wild type Taq with substitutions E626K, I707L, E708K
- amplification/detection of Bacillus anthracis target in blood [4]: specifically amplified the target in 5% blood
- amplification in the presence of crude soil extract [5]: outperforming the two commercial Tags; also recorded: amplified successfully
- resistance to PCR inhibitors among all 708 mutant variants [1]: superior in all aspects of inhibitors resistance to PCR inhibitors
- functionality of the 708 substitution [1]: efficient
- RT-PCR amplification of influenza virus gene [6]: work in RT-PCR
- real-time RT-PCR TaqMan detection of influenza virus gene [7]: work in RT-PCR TaqMan assays
- SYBR concentration in the presence of which the 0.25 kbp lambda target was amplified [8]: at least 4 ×
- SYBR concentration in the presence of which the 0.6 kbp Bacillus cereus target DNA was amplified [2]: 4 ×
- resistance toward SYBR green ([2]; no blood in the reaction (comparison value given in Example 3)): 4 ×
- SYBR concentration allowing amplification compared to wild type KlenTaq ([9]; 5% and 10% blood, SYBR dilutions from 64×): at least two times higher concentration of SYBR
- resistance toward SYBR green ([9]; with blood (5%, 10%) in the reaction): at least 64 ×

B2: wild type KlenTaq: SEQ ID NO: 3; N-terminal deletion at 278 of full-length Taq, Met/Gly replacing amino acids 279 and 280 (protein)
chain: MGLLHEFGLLESPKALEEAPWPPPEGAFVGFVLSRKEPMWADLLALAAARGGRVHRAPEPYKALRDLKEARGLLAKDLSVLALREGLGLPPGDDPMLLAYLLDPSNTTPEGVARRYGGEWTEEAGERAALSERLFANLWGRLEGEERLLWLYREVERPLSAVLAHMEATGVRLDVAYLRALSLEVAEEIARLEAEVFRLAGHPFNLNSRDQLERVLFDELGLPAIGKTEKTGKRSTSAAVLEALREAHPIVEKILQYRELTKLKSTYIDPLPDLIHPRTGRLHTRFNQTATATGRLSSSDPNLQNIPVRTPLGQRIRRAFIAEEGWLLVALDYSQIELRVLAHLSGDENLIRVFQEGRDIHTETASWMFGVPREAVDPLMRRAAKTINFGVLYGMSAHRLSQELAIPYEEAQAFIERYFQSFPKVRAWIEKTLEEGRRRGYVETLFGRRRYVPDLEARVKSVREAAERMAFNMPVQGTAADLMKLAMVKLFPRLEEMGARMLLQVHDELVLEAPKERAEAVARLAKEVMEGVYPLAVPLEVEVGIGEDWLSAKE
modifications: Klentaq-1
- melting curve profile in crude soil samples (630 bp CCR5 gene target): showed a melting curve at very low SYBR concentration
- SYBR concentration above which amplification failed [2]: higher than 1 ×

B3: FLAC-22: SEQ ID NO: 2; full-length Taq with substitutions E626K, I707L, E708N (protein)
chain: MRGMLPLFEPKGRVLLVDGHHLAYRTFHALKGLTTSRGEPVQAVYGFAKSLLKALKEDGDAVIVVFDAKAPSFRHEAYGGYKAGRAPTPEDFPRQLALIKELVDLLGLARLEVPGYEADDVLASLAKKAEKEGYEVRILTADKDLYQLLSDRIHVLHPEGYLITPAWLWEKYGLRPDQWADYRALTGDESDNLPGVKGIGEKTARKLLEEWGSLEALLKNLDRLKPAIREKILAHMDDLKLSWDLAKVRTDLPLEVDFAKRREPDRERLRAFLERLEFGSLLHEFGLLESPKALEEAPWPPPEGAFVGFVLSRKEPMWADLLALAAARGGRVHRAPEPYKALRDLKEARGLLAKDLSVLALREGLGLPPGDDPMLLAYLLDPSNTTPEGVARRYGGEWTEEAGERAALSERLFANLWGRLEGEERLLWLYREVERPLSAVLAHMEATGVRLDVAYLRALSLEVAEEIARLEAEVFRLAGHPFNLNSRDQLERVLFDELGLPAIGKTEKTGKRSTSAAVLEALREAHPIVEKILQYRELTKLKSTYIDPLPDLIHPRTGRLHTRFNQTATATGRLSSSDPNLQNIPVRTPLGQRIRRAFIAEEGWLLVALDYSQIELRVLAHLSGDKNLIRVFQEGRDIHTETASWMFGVPREAVDPLMRRAAKTINFGVLYGMSAHRLSQELAIPYEEAQAFIERYFQSFPKVRAWLNKTLEEGRRRGYVETLFGRRRYVPDLEARVKSVREAAERMAFNMPVQGTAADLMKLAMVKLFPRLEEMGARMLLQVHDELVLEAPKERAEAVARLAKEVMEGVYPLAVPLEVEVGIGEDWLSAKE
modifications: FLAC-22
notes: full-length Taq with substitutions E626K, I707L, E708N
- amplification/detection of Bacillus anthracis target in blood [4]: successful real-time PCR detection
- resistance to PCR inhibitors among all 708 mutant variants [1]: superior in all aspects of inhibitors resistance to PCR inhibitors
- functionality of the 708 substitution [1]: only functional in Taq
- RT-PCR amplification of influenza virus gene [6]: work in RT-PCR
- real-time RT-PCR TaqMan detection of influenza virus gene [7]: work in RT-PCR TaqMan assays
- SYBR concentration in the presence of which the 0.25 kbp lambda target was amplified [8]: 2 ×
- resistance toward SYBR green ([8]; without blood in the reaction (comparison value given in Example 4)): 2 ×
- SYBR concentration in the presence of which the 0.6 kbp Bacillus cereus target DNA was amplified [2]: 1.6 ×
- amplification under double challenge ([3]; 5% blood): capable of amplifying with all SYBR concentrations
- SYBR green necessary for real-time PCR detection ([3]; 5% blood, melting curve analysis): at least 4 ×
- resistance toward SYBR green ([3]; with 5% blood in the reaction): at least 32 ×

Reference: US9796965B2, “Use of Taq polymerase mutant enzymes for nucleic acid amplification in the presence of PCR inhibitors” (DNA Polymerase Technology Inc., priority 2006, dated 2017)
